Experimental findings from patent US20050064556A1 are described below.

For this assay, the target named is factor Xa. Put plainly: cell-based or functional assay.

As for “Tissue Factor Pathway Inhibitor (TFPI), yeast-produced, authentic mature 276 amino acid polypeptide (from UniProt P10646 29-304)”, the factor Xa amidolytic assay, 50% inhibitory concentration came to 20 ng/mL.
